Measurements: patent US8663616B2, “Enzymatic peracid generation for use in oral care products” (E I du Pont de Nemours and Company, priority 2010, dated 2014)

Experiments:
[1] = Two-step bleaching of coffee-tea stained bovine enamel (Example 16); conditions: for Whiteness Index 0 min: two-step: 10 μM enzyme 60 min, rinsed, then 40 mM triacetin, 100 mM H2O2, pH 7.2, before step 2; for ΔWI / Whiteness Index 5 min / Whiteness Index 15 min / Whiteness Index 30 min / Whiteness Index 45 min / Whiteness Index 60 min: two-step; for ΔWI: 0 to 60 min; for Whiteness Index 5 min: 5 min in triacetin/H2O2; for Whiteness Index 15 min: 15 min in triacetin/H2O2; for Whiteness Index 30 min: 30 min in triacetin/H2O2; for Whiteness Index 45 min: 45 min in triacetin/H2O2; for Whiteness Index 60 min: 60 min in triacetin/H2O2
Experimental: Bovine enamel incisors were prepared as indicated in Example 1. The stained enamel blocks were embedded in a 48 well plate to protect the dentin backside from solution exposure. A solution of 10 μM of each enzyme in 10 mM phosphate buffer, pH 7.2 was prepared and 500 μL of solution was incubated with each enamel substrate for 60 min. The enzyme solution was removed and each well was rinsed three times with an additional 500 μL of buffer. The enamel blocks were placed in a fresh well for the whitening process. A solution with a final concentration of 40 mM triacetin, 100 mM H2O2 in 50 mM phosphate pH 7.2 buffer was freshly prepared and 500 μL of solution was added to each enamel block. Over the course of 1 hr the enamel blocks were removed and a color measurement was obtained and then each was returned to the solution in the well plate. The whiteness index for each sample was monitored.

[2] = T. maritima C277S/C277T constructs, peracetic acid in solution (Example 11); format: biochemical; conditions: 0.5 μM enzyme, 100 mM triacetin, 100 mM H2O2, pH 7.2, 10 min, 37° C.; no enzyme 114
Experimental: (§1) The detection of peracetic acid followed the method described in Pinkernell et. al. (Analyst, 1997, 122, 567) using colorimetric detection of 2,2′-azino-bis(3-ethylbenzothiazoline(-6-sulfonate (ABTS) oxidation by peracetic acid. Following the formation of peracetic acid with the addition of triacetin and hydrogen peroxide, 90 μL of solution was added to 10 μL of 0.1 M H3PO4 in a well plate. 50 μL of 1 M acetic acid, 50 μL of 0.5 g/L ABTS and 50 μL of 0.002 g/L of KI was added. The solution was allowed to develop for 5 min. The absorbance of the solution was measured at 405 nm using a microplate reader. The peracetic acid concentration was calculated based on a standard curve developed simultaneously using peracetic acid reagent solution.
Perhydrolase enzymes listed in Table 5 were assessed for enzyme activity in solution as described in Example 7. The enzyme activity in solution was measured by making a 500 μl solution of 0.5 μM of each enzyme in 100 mM triacetin, 100 mM H2O2 and 10 mM phosphate buffer, pH 7.2. The solution was incubated for 10 min, at 37° C. After the reaction was stopped by mixing an aliquot with H3PO4, a 10 μL aliquot was removed for proper dilution, and then detected via ABTS oxidation as described in Example 7.

[3] = Peracetic acid generation from hydroxyapatite bound CE-7 perhydrolase fusions (Example 8); format: biochemical; conditions: hydroxyapatite particles exposed to 10 μM enzyme, washed; 100 mM triacetin, 100 mM H2O2, 30 min, 37° C.; no enzyme 30-118.8
Experimental: as §1
To assess binding of these constructs to hydroxyapatite, 33 mg of hydroxyapatite particles (Macro-prep Ceramic Hydroxyapatite TYPE I, 80 μm size BioRad, Hercules, Calif.), were washed with 10 mM phosphate buffer at pH 7.2. After removing the supernatant, enzyme stock solution was added to the hydroxyapatite dispersion to a final concentration of 10 μM and incubated for 30 min in a microcentrifuge tube with gentle agitation. Each sample was centrifuged for 1 min at 10000 rpm. The supernatant was removed and additional buffer was added. The particles were resuspended and transferred to a new tube. The process was repeated two additional times. The hydroxyapatite bound enzyme activity was measured by adding a 500 μl solution containing 100 mM triacetin, 100 mM H2O2 in 100 mM phosphate buffer, pH 7.2. The solution was incubated for 30 min, at 37° C. An aliquot was removed and mixed with H3PO4 and properly diluted for detection via ABTS oxidation as described in Example 7. The experiments were performed at different day with no enzyme as control for each experiment.

[4] = T. maritima C277S/C277T constructs, peracetic acid when bound to bovine enamel (Example 11); format: biochemical; conditions: bovine enamel exposed to 10 μM enzyme, 4 washes; 100 mM triacetin, 100 mM H2O2, 30 min, 37° C.; no enzyme 570
Experimental: as §1
The perhydrolase enzymes were also assessed for binding to bovine enamel substrates. Enamel substrates were prepared as described in Example 2 and 3. Each enamel block was hydrated in water for overnight at room temperature (˜22° C.). The enamel blocks were then equilibrated with 10 mM potassium phosphate buffer, pH7.2, for 10 min. The enamel substrates were rinsed 3 times the buffer. The enamel wells were filled with 500 μL of 10 μM enzyme solutions which was prepared by diluting in 10 mM phosphate buffer. The samples were incubated for 30 min with slow shaking at 37° C. The non-binding enzyme was removed by washing 4 times with phosphate buffer. Then, each enamel block was embedded inside a putty filled 24-well plate, with only the enamel top surface exposed. The perhydrolase activity from enamel bound enzyme was measured as described in Example 8. 100 μL reaction mixtures (100 mM phosphate buffer, pH7.2 and 100 mM H2O2 and 100 mM triacetin) was added on top of the enamel and incubated for 30 min at 37° C. A 90 μL aliquot was removed for detection via ABTS oxidation as noted in Example 8. Each sample data point represents an average of 3 independent enamel blocks.

[5] = Retention of perhydrolase on hydroxyapatite (SDS-PAGE band strength); format: binding; conditions: relative to enzyme input = 1; for Unbound (relative band strength): 10 μM enzyme, 0.5% hydroxyapatite, pH 7.2; for HAP Particles (relative band strength): enzyme retained on particles after washes
Experimental: Perhydrolase enzymes listed in Table 6 were assessed for binding to hydroxyapatite. A dispersion of hydroxyapatite nanoparticles (Aldrich 677418) was made at 0.5% solids in 10 mM phosphate buffer at pH 7.2. Enzyme stock solution was added to the hydroxyapatite dispersion to a final concentration of 10 μM and incubated for 30 min in a microcentrifuge tube with gentle agitation. Each sample was centrifuged for 5 min at 10000 rpm. The supernatant was removed and additional buffer was added. The particles were resuspended and transferred to a new tube. The process was repeated two additional times. Samples of the original input of enzyme, the supernatant removed from the particles with each wash step and the final particles were prepared for SDS-PAGE analysis by combining 60 μL of sample, 20 μL of LDS buffer and 8 μL of reducing agent (Nu-PAGE). Samples were heated at 85° C. for 10 min. 25 μL of each sample was loaded on a 4-12% BisTris gel (Invitrogen) and run at 115 volts for 1.5 h. The gel was removed and stained with a 1:1 dilution of Simply Blue stain (Invitrogen) overnight and destained for 4 h in deionized water. The gel was analyzed and detection of enzyme in each fraction was estimated based on the presence of a band. The results of the analysis are provided in Table 7 with an indication of the relative strength of each band in the gel compared to the enzyme input (input=1) to determine the strength of binding between the hydroxyapatite surface and each enzyme.

[6] = Perhydrolase activity in solution, ABTS detection of peracetic acid (Example 7); format: biochemical; conditions: 10 μL of 0.625 μg/mL enzyme, triacetin, H2O2, pH 7.2, 5 min
Experimental: as §1
The enzyme activity in solution was measured by making a solution of 0.625 μg/mL of each enzyme in 50 mM phosphate buffer, pH 7.2. 10 μL of enzyme solution was mixed with 90 μL buffer, 30 μL of 3% triacetin in water, 30 μL of 30 mM H2O2. The solution was incubated for 5 min. A 90 μL aliquot was removed for detection via ABTS oxidation as noted above.

[7] = Perhydrolase activity of enzyme bound to hydroxyapatite discs, ABTS (Example 7); format: biochemical
Experimental: as §1
The perhydrolase activity of the fusions once bound to HAP discs surfaces was determined with the same ABTS method. Hydroxyapatite discs (HiMed Inc, Old Bethpage, N.Y.; 5 mm dia.×1.8 mm thick) were incubated in 20 μM enzyme solution (50 mM potassium phosphate buffer pH 7.2) for 60 min followed by 6 times of washes (50 mM potassium phosphate buffer pH 7.2). The discs with enzyme adsorbed were transferred to new wells and 200 μL of phosphate buffer (10 mM pH 7.2), 30 μL of 3% triacetin (final concentration of 0.346%) and 30 μL of 30 mM H2O2 (final concentration of 3.46 mM) were added. The solution was allowed to incubate at room temperature for 5 min. 90 μL of solution was pipetted to a new well containing 10 μL of 100 mM H3PO4. 50 μL of acetic acid, 50 μL KI, 50 μL ABTS were added as described above. The solution was developed for 5 min at room temperature and read at A405 nm.

Row | Peracetic acid (ppm) [3] [ppm] | Unbound (relative band strength) [5] | HAP Particles (relative band strength) [5] | Wash1 (relative band strength) [5] | Wash2 (relative band strength) [5] | Molecule | Whiteness Index 0 min [1] | ΔWI [1] | Whiteness Index 5 min [1] | Whiteness Index 15 min [1] | Whiteness Index 30 min [1] | Whiteness Index 45 min [1] | Whiteness Index 60 min [1] | Peracetic acid (ppm) In Solution [2] [ppm] | Peracetic acid (ppm) On Enamel [4] [ppm] | Avg Absorbance 405 nm Background subtracted [6] | Avg Absorbance Background subtract ([7]; background = no enzyme, no HAP (0.775)) | Avg Absorbance at 5 min ([7]; discs incubated in 20 μM enzyme, 6 washes, 0.346% triacetin, 3.46 mM H2O2, A405) | PAA conc μM per disc ([7]; enzyme bound to hydroxyapatite disc, 5 min, no enzyme control 1.2) [μM per disc] | activity when bound to hydroxyapatite (in words) ([7]; with addition of triacetin and hydrogen peroxide)
1 | 3666.4 | 0.5 | 0.5 | 0.0 | 0.0 | EZ-2: C277S-link1-HC263-H6 fusion protein, SEQ ID NO: 425 (protein) MAFFDLPLEELKKYRPERYEEKDFDEFWEETLAESEKFPLDPVFERMESHLKTVEAYDVTFSGYRGQRIKGWLLVPKLEEEKLPCVVQYIGYNGGRGFPHDWLFWPSMGYICFVMDTRGQGSGWLKGDTPDYPEGPVDPQYPGFMTRGILDPRTYYYRRVFTDAVRAVEAAASFPQVDQERIVIAGGSQGGGIALAVSALSKKAKALLCDVPFLCHFRRAVQLVDTHPYAEITNFLKTHRDKEEIVFRTLSYFDGVNFAARAKIPALFSVGLMDNISPPSTVFAAYNYYAGPKEIRIYPYNNHEGGGSFQAVEQVKFLKKLFEKGGPGSGGAGSPGSAGGPGSPSAQSQLPDKHSGLHERAPQRYGPEPEPEPEPIPEPPKEAPVVIEKPKPKPKPKPKPPAHDHKNQKETHQRHAAGSGGGGSPHHHHHH | −154.5 | 129.1 | −134.6 | −97.3 | −57.2 | −35.8 | −25.3 | 4761 | 2549 | 1.577 |  |  |  | 
2 |  | 0.2 | 0.7 | 0.05 | 0.05 | EZ-5: C277S-link1-(GK)5-H6, SEQ ID NO: 428 (protein) MAFFDLPLEELKKYRPERYEEKDFDEFWEETLAESEKFPLDPVFERMESHLKTVEAYDVTFSGYRGQRIKGWLLVPKLEEEKLPCVVQYIGYNGGRGFPHDWLFWPSMGYICFVMDTRGQGSGWLKGDTPDYPEGPVDPQYPGFMTRGILDPRTYYYRRVFTDAVRAVEAAASFPQVDQERIVIAGGSQGGGIALAVSALSKKAKALLCDVPFLCHFRRAVQLVDTHPYAEITNFLKTHRDKEEIVFRTLSYFDGVNFAARAKIPALFSVGLMDNISPPSTVFAAYNYYAGPKEIRIYPYNNHEGGGSFQAVEQVKFLKKLFEKGGPGSGGAGSPGSAGGPGSGKGKGKGKGKHHHHHH | −135.8 | 93.2 | −129.8 | −97.4 | −65.1 | −49.9 | −42.7 | 3956 | 1344 | 1.658 | 1.379 | 2.154 | 49.7 | active enzymes when bound to hydroxyapatite
3 |  | 0.8 | 0.1 | 0.05 | 0.05 | EZ-3: C277S-link2-H6, SEQ ID NO: 426 (protein) MAFFDLPLEELKKYRPERYEEKDFDEFWEETLAESEKFPLDPVFERMESHLKTVEAYDVTFSGYRGQRIKGWLLVPKLEEEKLPCVVQYIGYNGGRGFPHDWLFWPSMGYICFVMDTRGQGSGWLKGDTPDYPEGPVDPQYPGFMTRGILDPRTYYYRRVFTDAVRAVEAAASFPQVDQERIVIAGGSQGGGIALAVSALSKKAKALLCDVPFLCHFRRAVQLVDTHPYAEITNFLKTHRDKEEIVFRTLSYFDGVNFAARAKIPALFSVGLMDNISPPSTVFAAYNYYAGPKEIRIYPYNNHEGGGSFQAVEQVKFLKKLFEKGGSHHHHHH | −159.0 | 75.2 | −147.4 | −161.5 | −117.3 | −104.7 | −83.8 | 5187 | 733 | 1.751 |  |  |  | 
